In article PMC10336103, “ResR/McdR-regulated protein translation machinery contributes to drug resilience in Mycobacterium tuberculosis” (Communications Biology, 2023):

Target: the molecule itself
Experiment: SEC; […], pH 8.0, 150 mM NaCl; flow rate 0.4 ml/min; […]

B1: ResR/McdR (ResR_(1-225)), 6x His-tagged (natural protein)
chain: MTQLVTRARSARGSTLGEQPRQDQLDFADHTGTAGDGNDGAAAASGPVQPGLFPDDSVPDELVGYRGPSACQIAGITYRQLDYWARTSLVVPSIRSAAGSGSQRLYSFKDILVLKIVKRLLDTGISLHNIRVAVDHLRQRGVQDLANITLFSDGTTVYECTSAEEVVDLLQGGQGVFGIAVSGAMRELTGVIADFHGERADGGESIAAPEDELASRRKHRDRKIG
notes: also called Rv1830; ERDMAN_2020; not shown: His6, N-terminal, kept
- binding result: binds
